Measured values reported in US20150290319A1 (EMERGENT BIOSOLUTIONS CANADA, published 2015).

B1: rehuCAN46G19 (antibody, V domains shown)
VH: EVQLVQSGAEVVKPGESVKISCKASGYSFTGYYIHWVKQTPGQSLEWVGRIFPYNGAASYNQNFKGKATLTVDKSTTTAYMELSSLRSEDSAVYFCARWLRVYFDYWGQGTTLTVSS
VL: ENVLTQSPSSMSASVGDRVTMTCSASSSVTYMHWYQQKPGKSPKLWIYETSKLASGVPSRFSGSGSGNDYSLTISSMQPEDVATYYCFQGSGYPFTFGQGTKLEIK
B2: rehuCAN46G24 (antibody, V domains shown)
VH: EVQLVQSGAEVVKPGESVKISCKASGYSFTGYYIHWVKQTPGQSLEWVGRIFPYNGAASYNQNFKGKATLTVDKSTSTAYMELSSLRSEDSAVYFCARWLRVYFDYWGQGTTLTVSS
VL: EIVLTQSPSSMSTSVGDRVTMSCSASSSVTYMHWYQQKPGKSPKLWIYETSKLASGVPSRFSGSGSGNDYSLTISSMQPEDVATYYCFQGSGYPFTFGQGTKLEIK
B3: huCAN46G19 (antibody, V domains shown)
VH: EVQLVQSGAEVKKPGESVKVSCKASGYSFTGYYIHWVKQAPGQGLEWVGRIFPYNGAASYNQNFKGKATLTVDKSSTTAYMELSSLRSEDTAVYFCARWLRVYFDYWGQGTTVTVSS
VL: ENVLTQSPSSLSASVGDRVTITCSASSSVTYMHWYQQKPGKAPKLWIYETSKLASGVPGRFSGSGSGNSYTFTISSLQPEDIATYYCFQGSGYPFTFGQGTKVEIK
notes: also called HuCAN46G19-3-2
B4: CAN46G13a (antibody, V domains shown)
VH: DVQLQESGPGLVKPSQSLSLTCTVTGYSITSDSAWNWIRQFPGNNLEWMGYISYSGSTSYNPSLKSRISITRDTSKNQFFLQLNSVTTEDTATYYCARRSRVSFYFDYWGQGTTLTVSS
VL: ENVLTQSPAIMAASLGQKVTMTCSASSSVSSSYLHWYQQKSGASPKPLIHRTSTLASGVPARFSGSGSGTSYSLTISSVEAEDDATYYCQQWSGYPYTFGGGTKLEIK
notes: also called CAN46G13-1-8; murine CAN46G13a
B5: CAN33G1 (antibody, V domains shown)
VH: EVQLQQSGPDLVKPGASVKISCKASGYSFTGYYMHWVKQSHGKSLEWIGRVNPYNGDTNYNQNFKDKAILTVDKSASTAYMEFRSLTSEDSAVYYCTRSNWENYFDYWGQGSTLTVSS
VL: DIQLTQSSSSFSVSLGDRVTITCKASEDIYNRLAWYQQRPGNAPRLLISGATSLETGIPSRFSGSGSGKEYTLSIASLQTEDFVTYYCQQYWNIPTFGGGTRLEIK
notes: also called murine CAN33G1; CAN33 mAb
B6: CAN46G24 (antibody, V domains shown)
VH: EVQLLQSGPELVKPGTSVKISCKASGYSFTGYYIHWVKQTHVKSLEWVGRIFPYNGAASYNQNFKGKATLTVDKSSSTAYMELHSLTSEDSAVYFCARWLRVYFDYWGQGTTLTVSS
VL: EIVLTQSPAIMSTSPGEKVTMSCSASSSVTYMHWYQQKSITSPKLWIYETSKLASGVPGRFSGSGSGNSYSLTISSMEAEDVATYYCFQGSGYPFTFGSGTKLEIK
notes: also called CAN46G24-2-3; murine CAN46G24
B7: CAN46G13 (antibody, V domains shown)
VH: EVQLLQSGPELVKPGTSVKISCKASGYSFTGYYIHWVKQTHVKSLEWVGRIFPYNGAASYNQNFKGKATLTVDKSSSTAYMELHSLTSEDSAVYFCARWLRVYFDYWGQGTTLTVSS
VL: EIVLTQSPAIMSTSPGEKVTMSCSASSSVTYMHWYQQKSITSPKLWIYETSKLASGVPGRFSGSGSGNSYSLTISSMEAEDVATYYCFQGSGYPFTFGSGTKLEIK
notes: also called CAN46G13-1-5; murine CAN46G13
B8: CAN46G4 (antibody, V domains shown)
VH: EVQLLQSGPELVKPGASVKISCKASDYSFTGYYMHWVKQSHVKSLEWIGRIFPYNGAASYNQNFKDKATLTVDKSSSTAYMELHSLTSEDSAVYYCTRWLRVYFDYWGQGTTLTVSS
VL: EKVLTQSPAIMSASPGEEVTMTCSASSSVSYMHWYQQKSSTSPKLWIYETSKLAFGVPGRFSGSGSGNSYSLTISSMEAEDVATYYCFQGSGYPFTFGSGTKLEVK
notes: also called CAN46G4-1-2; murine CAN46G4
B9: CAN46G19 (antibody, V domains shown)
VH: EVQLLQSGPELVKPGTSVKISCKASGYSFTGYYIHWVKQTHVKSLEWVGRIFPYNGAASYNQNFKGKATLTVDKSSTTAYMELHSLTSEDSAVYFCARWLRVYFDYWGQGTTLTVSS
VL: ENVLTQSPTIMSASPGEEVTMTCSASSSVTYMHWYQQKSITSPKLWIYETSKLASGVPGRFSGSGSGNSYSLTISSMEAEDVATYYCFQGSGYPFTFGSGTKLEIK
notes: also called CAN46G19-3-2; murine CAN46G19
B10: huCAN46G4 (antibody, V domains shown)
VH: EVQLLQSGAEVKKPGSSVKISCKASDYSFTGYYMHWVKQAPGQGLEWIGRIFPYNGAASYNQNFKDKATLTVDKSSSTAYMELHSLRSEDTAVYYCTRWLRVYFDYWGQGTLVTVSS
VL: EKVLTQSPATLSLSPGERATMTCSASSSVSYMHWYQQKPGTSPKLWIYETSKLAFGVPARFSGSGSGNSYSLTISSLEPEDFAVYYCFQGSGYPFTFGQGTRLEIK
B11: rehuCAN46G4 (antibody, V domains shown)
VH: EVQLLQSGAEVVKPGSSVKISCKASGYSFTGYYMHWVKQAPGQGLEWIGRIFPYNGAASYNQNFKDKATLTADKSTNTAYMELSSLRSEDSAVYYCTRWLRVYFDYWGQGTLVTVSS
VL: EKVLTQSPATLSASPGERVTMSCSASSSVSYMHWYQQKPGQSPKLWIYETSKLAFGVPARFSGSGSGTDYSLTISSMEPEDFATYYCFQGSGYPFTFGQGTRLEIK

Tests used:
[1] = biological target: T1, Clostridium difficile toxin B (whole toxin B) (Clostridium difficile); experiment: cell-based or functional assay
[2] = biological target: T1, Clostridium difficile toxin B (whole …); experiment: BLI (Octet QKe), mAb on SA sensor, toxin B analyte, model 1:1
[3] = biological target: T1, Clostridium difficile toxin B (whole …); experiment: BLI (Octet QKe), mAb on SA sensor, toxin B analyte, model 1:1; head prints KD (nM) but Kdis/Kon gives this number in M
[4] = biological target: T1, Clostridium difficile toxin B (whole …); experiment: BLI (Octet QKe), mAb from CHOK1SV, toxin B; column kdis2 (1/s)
[5] = biological target: T1, Clostridium difficile toxin B (whole …); experiment: BLI (Octet QKe), mAb on AHC sensor, toxin B analyte, model 2:1; head prints KD (nM) but Kdis/Kon gives this number in M
[6] = biological target: T2, Clostridium difficile toxin A (whole toxin A) (Clostridium difficile, UniProt P16154 1-2710); experiment: ELISA on coated whole toxin A (FIG. 1)
T2 construct: mature; also called TcdA

bovine serum albumin = biological target: T3, bovine serum albumin (bovine, UniProt P02769 25-607); experiment: Western blot (FIGS. 4-6)
T3 construct: also called BSA; commercial BSA

[7] = biological target: T1, Clostridium difficile toxin B (whole …); experiment: BLI (Octet QKe), mAb on SA sensor, toxin B analyte, model 2:1, third of three rows
[8] = biological target: T1, Clostridium difficile toxin B (whole …); experiment: biolayer interferometry (Octet QKe); biotinylated antibody on streptavidin sensor, toxin B 50-0.78 nM
[9] = biological target: T1, Clostridium difficile toxin B (whole …); experiment: BLI (Octet QKe), mAb on SA sensor, toxin B analyte, model 2:1, first of three rows
[10] = biological target: T4, recombinant toxin B fragment 4 (Clostridium difficile, UniProt P18177 1777-2366); experiment: Western blot, 2 ug protein per lane, mAb at 2 ug/ml
[11] = biological target: T5, recombinant toxin B fragment 1 (Clostridium difficile, UniProt P18177 1-546); experiment: ELISA, coated antigen, antibody at 0.5 ug/ml, OD405 at 15 min
[12] = biological target: T1, Clostridium difficile toxin B (whole …); experiment: cell-based or functional assay; remark: listed apart in the source
[13] = biological target: T4, recombinant toxin B fragment 4; experiment: ELISA, coated antigen, mAb 0.1-1 µg/ml (FIG. 1)
[14] = biological target: T5, recombinant toxin B fragment 1; experiment: Western blot, 5 ug protein per lane, mAb at 5 ug/ml
[15] = biological target: T4, recombinant toxin B fragment 4; experiment: ELISA, coated antigen, antibody at 0.5 ug/ml, OD405 at 15 min
[16] = biological target: T5, recombinant toxin B fragment 1; experiment: Western blot, 2 ug protein per lane, mAb at 2 ug/ml
[17] = biological target: T5, recombinant toxin B fragment 1; experiment: as above; remark: listed apart in the source
[18] = biological target: T1, Clostridium difficile toxin B (whole …); experiment: BLI (Octet QKe), mAb on SA sensor, toxin B analyte, model 2:1
[19] = biological target: T1, Clostridium difficile toxin B (whole …); experiment: BLI (Octet QKe), mAb on AHC sensor, toxin B analyte, model 2:1

T5 sequence (P18177 1-546 limits assumed): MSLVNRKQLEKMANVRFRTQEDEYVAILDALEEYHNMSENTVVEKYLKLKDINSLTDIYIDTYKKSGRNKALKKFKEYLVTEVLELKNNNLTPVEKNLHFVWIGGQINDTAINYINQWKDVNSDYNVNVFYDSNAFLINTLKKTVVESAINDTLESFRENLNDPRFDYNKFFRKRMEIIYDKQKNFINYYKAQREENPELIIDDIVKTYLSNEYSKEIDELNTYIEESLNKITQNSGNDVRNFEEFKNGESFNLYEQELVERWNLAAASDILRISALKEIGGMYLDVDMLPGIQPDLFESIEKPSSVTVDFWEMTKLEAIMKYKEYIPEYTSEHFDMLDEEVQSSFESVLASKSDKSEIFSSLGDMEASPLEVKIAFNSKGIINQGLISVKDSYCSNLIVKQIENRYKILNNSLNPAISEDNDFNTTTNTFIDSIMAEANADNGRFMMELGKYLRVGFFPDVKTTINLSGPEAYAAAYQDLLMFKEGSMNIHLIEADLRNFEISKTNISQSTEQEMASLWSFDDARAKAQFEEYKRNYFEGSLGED
T4 sequence (P18177 1777-2366 limits assumed): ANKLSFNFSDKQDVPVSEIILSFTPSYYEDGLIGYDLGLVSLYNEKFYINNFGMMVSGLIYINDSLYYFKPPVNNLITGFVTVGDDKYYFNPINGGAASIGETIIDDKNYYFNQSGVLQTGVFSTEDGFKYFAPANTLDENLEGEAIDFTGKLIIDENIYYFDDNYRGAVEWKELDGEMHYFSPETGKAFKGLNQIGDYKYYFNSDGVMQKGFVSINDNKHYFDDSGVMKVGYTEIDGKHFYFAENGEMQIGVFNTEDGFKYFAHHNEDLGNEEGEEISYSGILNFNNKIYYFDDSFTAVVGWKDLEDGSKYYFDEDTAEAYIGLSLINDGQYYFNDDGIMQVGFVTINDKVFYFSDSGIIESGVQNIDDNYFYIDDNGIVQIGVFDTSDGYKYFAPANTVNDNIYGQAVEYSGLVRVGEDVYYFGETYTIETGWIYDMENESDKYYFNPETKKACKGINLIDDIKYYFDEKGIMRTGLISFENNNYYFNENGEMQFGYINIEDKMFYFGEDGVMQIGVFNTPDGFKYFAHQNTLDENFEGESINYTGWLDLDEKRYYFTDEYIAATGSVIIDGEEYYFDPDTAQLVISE
T3 sequence (P02769 25-607 limits assumed): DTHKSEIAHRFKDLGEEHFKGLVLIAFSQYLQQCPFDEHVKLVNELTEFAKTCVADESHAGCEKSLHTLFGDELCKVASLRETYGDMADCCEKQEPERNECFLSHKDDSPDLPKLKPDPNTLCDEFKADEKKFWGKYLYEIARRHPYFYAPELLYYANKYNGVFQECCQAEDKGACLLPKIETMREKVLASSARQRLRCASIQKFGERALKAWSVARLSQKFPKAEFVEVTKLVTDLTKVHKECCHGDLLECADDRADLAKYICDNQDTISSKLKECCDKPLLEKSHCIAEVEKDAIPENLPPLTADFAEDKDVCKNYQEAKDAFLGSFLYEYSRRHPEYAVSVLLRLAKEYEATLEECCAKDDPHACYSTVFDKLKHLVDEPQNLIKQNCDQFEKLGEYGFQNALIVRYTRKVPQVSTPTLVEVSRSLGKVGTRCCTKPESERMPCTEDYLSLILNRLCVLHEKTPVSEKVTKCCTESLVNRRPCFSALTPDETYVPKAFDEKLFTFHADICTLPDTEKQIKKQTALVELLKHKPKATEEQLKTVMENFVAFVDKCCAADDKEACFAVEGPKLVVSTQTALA
T2 sequence (P16154 whole entry): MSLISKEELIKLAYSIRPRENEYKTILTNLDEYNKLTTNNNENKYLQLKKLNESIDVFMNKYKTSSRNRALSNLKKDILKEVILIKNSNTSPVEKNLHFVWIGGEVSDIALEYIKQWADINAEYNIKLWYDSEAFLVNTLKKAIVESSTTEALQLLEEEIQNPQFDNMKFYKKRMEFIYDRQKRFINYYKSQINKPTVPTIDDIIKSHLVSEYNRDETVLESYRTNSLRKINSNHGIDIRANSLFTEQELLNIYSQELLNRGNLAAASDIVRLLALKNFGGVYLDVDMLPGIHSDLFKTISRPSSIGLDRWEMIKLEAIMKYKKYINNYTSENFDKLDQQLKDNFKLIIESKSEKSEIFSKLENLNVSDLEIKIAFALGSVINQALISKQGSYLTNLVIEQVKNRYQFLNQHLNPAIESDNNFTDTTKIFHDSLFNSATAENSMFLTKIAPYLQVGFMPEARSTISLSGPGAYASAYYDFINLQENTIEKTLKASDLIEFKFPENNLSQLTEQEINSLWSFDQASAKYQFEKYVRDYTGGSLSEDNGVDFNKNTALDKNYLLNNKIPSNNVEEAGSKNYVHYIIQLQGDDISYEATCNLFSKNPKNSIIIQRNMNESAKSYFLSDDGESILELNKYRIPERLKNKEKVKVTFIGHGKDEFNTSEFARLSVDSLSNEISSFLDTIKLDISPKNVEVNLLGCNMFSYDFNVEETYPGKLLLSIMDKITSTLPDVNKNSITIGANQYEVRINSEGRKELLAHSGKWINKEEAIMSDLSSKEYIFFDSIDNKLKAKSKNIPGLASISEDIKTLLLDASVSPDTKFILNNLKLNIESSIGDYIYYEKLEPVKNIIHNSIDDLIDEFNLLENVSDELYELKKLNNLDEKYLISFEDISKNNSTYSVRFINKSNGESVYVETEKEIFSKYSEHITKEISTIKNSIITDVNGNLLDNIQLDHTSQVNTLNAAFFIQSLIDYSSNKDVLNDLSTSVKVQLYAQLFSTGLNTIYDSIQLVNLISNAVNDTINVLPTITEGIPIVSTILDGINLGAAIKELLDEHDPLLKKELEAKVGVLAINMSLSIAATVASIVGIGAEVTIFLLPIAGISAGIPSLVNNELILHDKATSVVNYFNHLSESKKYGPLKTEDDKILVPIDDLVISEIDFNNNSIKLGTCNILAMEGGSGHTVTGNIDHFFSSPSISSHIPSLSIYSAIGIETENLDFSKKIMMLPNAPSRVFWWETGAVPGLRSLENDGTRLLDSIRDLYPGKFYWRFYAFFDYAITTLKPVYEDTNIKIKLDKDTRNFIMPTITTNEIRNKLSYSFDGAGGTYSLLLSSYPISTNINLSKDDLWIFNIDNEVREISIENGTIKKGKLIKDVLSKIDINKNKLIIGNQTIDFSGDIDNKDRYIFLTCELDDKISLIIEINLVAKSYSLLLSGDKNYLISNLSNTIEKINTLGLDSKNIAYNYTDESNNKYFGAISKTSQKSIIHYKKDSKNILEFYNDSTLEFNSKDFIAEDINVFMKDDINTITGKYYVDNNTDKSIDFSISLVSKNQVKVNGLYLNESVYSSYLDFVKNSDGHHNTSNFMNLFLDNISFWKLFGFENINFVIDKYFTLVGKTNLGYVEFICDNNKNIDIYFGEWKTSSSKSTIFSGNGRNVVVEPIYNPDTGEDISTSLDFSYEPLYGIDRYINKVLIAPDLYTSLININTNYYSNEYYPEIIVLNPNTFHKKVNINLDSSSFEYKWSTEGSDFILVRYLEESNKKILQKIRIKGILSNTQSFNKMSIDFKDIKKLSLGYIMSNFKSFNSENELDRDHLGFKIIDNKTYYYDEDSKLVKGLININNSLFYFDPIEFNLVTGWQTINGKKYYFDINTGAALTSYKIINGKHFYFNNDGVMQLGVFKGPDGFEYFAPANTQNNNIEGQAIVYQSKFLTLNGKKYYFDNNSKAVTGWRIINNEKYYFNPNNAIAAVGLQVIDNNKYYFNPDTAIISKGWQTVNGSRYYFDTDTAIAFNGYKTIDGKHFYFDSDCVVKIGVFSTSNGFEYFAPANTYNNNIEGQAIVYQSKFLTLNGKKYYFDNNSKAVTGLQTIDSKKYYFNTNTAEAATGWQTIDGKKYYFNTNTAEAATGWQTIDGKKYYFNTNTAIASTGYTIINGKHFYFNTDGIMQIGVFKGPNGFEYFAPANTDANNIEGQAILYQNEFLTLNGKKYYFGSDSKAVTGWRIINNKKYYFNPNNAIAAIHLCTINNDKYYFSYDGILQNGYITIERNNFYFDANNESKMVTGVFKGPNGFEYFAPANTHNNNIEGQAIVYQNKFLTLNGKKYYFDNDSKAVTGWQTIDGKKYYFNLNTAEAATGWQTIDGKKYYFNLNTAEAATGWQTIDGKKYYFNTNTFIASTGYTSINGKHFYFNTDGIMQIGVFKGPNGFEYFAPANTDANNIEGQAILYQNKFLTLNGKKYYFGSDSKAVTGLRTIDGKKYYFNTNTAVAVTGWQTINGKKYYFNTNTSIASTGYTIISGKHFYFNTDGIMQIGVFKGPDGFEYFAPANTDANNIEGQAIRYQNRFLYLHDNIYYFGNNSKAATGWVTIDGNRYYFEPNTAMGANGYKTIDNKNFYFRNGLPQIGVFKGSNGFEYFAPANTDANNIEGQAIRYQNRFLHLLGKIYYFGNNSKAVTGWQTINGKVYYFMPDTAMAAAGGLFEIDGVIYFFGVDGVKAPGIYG

Binder	binding result [6]	binding result (bovine serum albumin)	Kd [8]	koff [8]	kon [8]	Mean EC50, neutralization of TcdB on HT-29 cells (xCELLigence) [12]	further results
B1	–	–	–	–	–	–	antibody concentration giving 100% neutralization of toxin B on CT-26 cells, mAb from CHO (FIG. 25) [1]: ~0.3 µg/mL; koff [2]: 0.00021 s⁻¹; kon [2]: 1.36e+06 M⁻¹ s⁻¹; Kd [3]: 0.154 nM
B2	–	–	–	–	–	–	koff [4]: 1.2e-05 s⁻¹; antibody concentration giving 100% neutralization of toxin B on CT-26 cells, mAb from CHO (FIG. 25) [1]: ~0.3 µg/mL
B3	–	–	–	–	–	–	Kd [5]: 0.178 nM
B4	no binding (tested: 0.1 µg/ml to 1 µg/ml)	no binding (tested: 2 µg/ml to 5 µg/ml)	8.57 nM	0.00693 s⁻¹	808000 M⁻¹ s⁻¹	–	koff [7]: 0.00598 s⁻¹; kon [7]: 73700 M⁻¹ s⁻¹; koff [9]: 0.00357 s⁻¹; kon [9]: 678000 M⁻¹ s⁻¹; binding result [10]: no binding (tested: 2 ug/ml)
B5	–	–	10.9 nM	0.000591 s⁻¹	54400 M⁻¹ s⁻¹	–	binding result [11]: no binding (tested: 0.5 ug/ml)
B6	no binding (tested: 0.1 µg/ml to 1 µg/ml)	no binding (tested: 2 µg/ml to 5 µg/ml)	1.89 nM	0.00028 s⁻¹	149000 M⁻¹ s⁻¹	44.2 µg/mL	binding result [13]: binds; binding result [14]: no binding (tested: 5 ug/ml)
B7	no binding (tested: 0.1 µg/ml to 1 µg/ml)	no binding (tested: 2 µg/ml to 5 µg/ml)	1.17 nM	0.000149 s⁻¹	128000 M⁻¹ s⁻¹	136 µg/mL	binding result [15]: binds; binding result [16]: no binding (tested: 2 ug/ml)
B8	no binding (tested: 0.1 µg/ml to 1 µg/ml)	no binding (tested: 2 µg/ml to 5 µg/ml)	1.41 nM	0.000101 s⁻¹	71800 M⁻¹ s⁻¹	142 µg/mL	binding result [17]: no binding (tested: 2 ug/ml); binding result [13]: binds
B9	no binding (tested: 0.1 µg/ml to 1 µg/ml)	no binding (tested: 2 µg/ml to 5 µg/ml)	1.27 nM	0.000145 s⁻¹	114000 M⁻¹ s⁻¹	142 µg/mL	binding result [17]: no binding (tested: 2 ug/ml); binding result [13]: binds
B10	–	–	–	–	–	–	koff [18]: 0.000928 s⁻¹; kon [18]: 590000 M⁻¹ s⁻¹; koff [19]: 0.000754 s⁻¹; kon [19]: 2.12e+06 M⁻¹ s⁻¹
B11	–	–	–	–	–	–	koff [2]: 0.000235 s⁻¹; kon [2]: 590000 M⁻¹ s⁻¹; Kd [3]: 0.399 nM
